Test results: IntAct's records for PubMed 15744307

B1: Short transient receptor potential channel 3 (Homo sapiens), Q13507 (parent)
chain: MSTKVRKCKEQARVTFPAPEEEEDEGEDEGAEPQRRRRGWRGVNGGLEPRSAPSQREPHGYCPPPFSHGPDLSMEGSPSLRRMTVMREKGRRQAVRGPAFMFNDRGTSLTAEEERFLDAAEYGNIPVVRKMLEESKTLNVNCVDYMGQNALQLAVGNEHLEVTELLLKKENLARIGDALLLAISKGYVRIVEAILNHPGFAASKRLTLSPCEQELQDDDFYAYDEDGTRFSPDITPIILAAHCQKYEVVHMLLMKGARIERPHDYFCKCGDCMEKQRHDSFSHSRSRINAYKGLASPAYLSLSSEDPVLTALELSNELAKLANIEKEFKNDYRKLSMQCKDFVVGVLDLCRDSEEVEAILNGDLESAEPLEVHRHKASLSRVKLAIKYEVKKFVAHPNCQQQLLTIWYENLSGLREQTIAIKCLVVLVVALGLPFLAIGYWIAPCSRLGKILRSPFMKFVAHAASFIIFLGLLVFNASDRFEGITTLPNITVTDYPKQIFRVKTTQFTWTEMLIMVWVLGMMWSECKELWLEGPREYILQLWNVLDFGMLSIFIAAFTARFLAFLQATKAQQYVDSYVQESDLSEVTLPPEIQYFTYARDKWLPSDPQIISEGLYAIAVVLSFSRIAYILPANESFGPLQISLGRTVKDIFKFMVLFIMVFFAFMIGMFILYSYYLGAKVNAAFTTVEESFKTLFWSIFGLSEVTSVVLKYDHKFIENIGYVLYGIYNVTMVVVLLNMLIAMINSSYQEIEDDSDVEWKFARSKLWLSYFDDGKTLPPPFSLVPSPKSFVYFIMRIVNFPKCRRRRLQKDIEMGMGNSKSRLNLFTQSNSRVFESHSFNSILNQPTRYQQIMKRLIKRYVLKAQVDKENDEVNEGELKEIKQDISSLRYELLEDKSQATEELAILIHKLSEKLNPSMLRCE
partner: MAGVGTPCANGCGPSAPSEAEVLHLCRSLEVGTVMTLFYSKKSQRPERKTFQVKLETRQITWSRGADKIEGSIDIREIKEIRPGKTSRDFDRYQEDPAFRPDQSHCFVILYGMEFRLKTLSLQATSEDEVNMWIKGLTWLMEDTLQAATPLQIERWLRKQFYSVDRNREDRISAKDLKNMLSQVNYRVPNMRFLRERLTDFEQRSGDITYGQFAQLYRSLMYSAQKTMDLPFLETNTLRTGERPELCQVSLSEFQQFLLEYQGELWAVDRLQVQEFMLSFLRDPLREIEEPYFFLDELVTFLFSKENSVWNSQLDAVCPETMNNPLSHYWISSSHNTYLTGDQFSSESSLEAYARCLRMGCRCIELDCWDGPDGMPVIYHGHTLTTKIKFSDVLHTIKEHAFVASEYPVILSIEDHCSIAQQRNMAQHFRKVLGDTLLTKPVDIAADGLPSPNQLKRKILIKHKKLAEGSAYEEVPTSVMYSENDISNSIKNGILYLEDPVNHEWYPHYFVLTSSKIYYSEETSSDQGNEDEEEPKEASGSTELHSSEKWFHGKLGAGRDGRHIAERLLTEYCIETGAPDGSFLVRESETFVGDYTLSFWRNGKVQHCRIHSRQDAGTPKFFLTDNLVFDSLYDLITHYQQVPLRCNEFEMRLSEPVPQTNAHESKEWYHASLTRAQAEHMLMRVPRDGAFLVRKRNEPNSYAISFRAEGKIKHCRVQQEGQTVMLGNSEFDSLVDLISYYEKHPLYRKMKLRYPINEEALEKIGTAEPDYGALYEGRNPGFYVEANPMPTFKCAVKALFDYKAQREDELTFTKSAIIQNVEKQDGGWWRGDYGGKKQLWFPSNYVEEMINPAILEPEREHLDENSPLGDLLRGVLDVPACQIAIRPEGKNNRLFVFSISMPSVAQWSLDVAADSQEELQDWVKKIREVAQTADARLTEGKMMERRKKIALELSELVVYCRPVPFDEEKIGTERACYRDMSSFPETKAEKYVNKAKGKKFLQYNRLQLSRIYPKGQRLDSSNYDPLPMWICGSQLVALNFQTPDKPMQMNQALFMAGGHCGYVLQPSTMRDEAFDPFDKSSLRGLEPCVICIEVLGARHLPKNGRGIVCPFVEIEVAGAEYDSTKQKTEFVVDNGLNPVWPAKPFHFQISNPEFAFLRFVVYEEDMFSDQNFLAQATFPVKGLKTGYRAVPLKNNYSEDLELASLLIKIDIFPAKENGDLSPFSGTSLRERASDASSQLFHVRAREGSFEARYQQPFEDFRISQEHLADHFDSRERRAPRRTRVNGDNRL

Variants of: B1
Conditions: with plcg1_rat Plcg1, P10686

Effect of a mutation on the interaction, decreasing interaction:
L117A
E113A
F116A
